From PMC314469, “Protein Interaction Networks by Proteome Peptide Scanning” (PLoS Biology, 2004)

T1: Boi1 SH3 (BOI1_YEAST), P38041
T1 chain: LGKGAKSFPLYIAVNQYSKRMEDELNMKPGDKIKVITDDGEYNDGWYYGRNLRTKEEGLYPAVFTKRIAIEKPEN

T2: Boi2 SH3 (BOI2_YEAST), P39969
T2 chain: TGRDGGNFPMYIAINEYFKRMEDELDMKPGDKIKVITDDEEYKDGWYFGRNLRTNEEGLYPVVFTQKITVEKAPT

T3: Myo5 SH3 (MYO5_YEAST), Q04439
T3 chain: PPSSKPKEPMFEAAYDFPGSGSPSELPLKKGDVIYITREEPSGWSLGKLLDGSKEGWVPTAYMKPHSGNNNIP

T4: Rvs167 SH3 (RV167_YEAST), P39743
T4 chain: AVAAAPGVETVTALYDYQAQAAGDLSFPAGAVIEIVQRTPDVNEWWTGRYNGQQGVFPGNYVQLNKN

T5: Yfr024 SH3 (LSB3_YEAST), P43603
T5 chain: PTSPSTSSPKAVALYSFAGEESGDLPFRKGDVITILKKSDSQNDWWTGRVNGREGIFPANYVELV

T6: Yhr016c SH3 (YSC84_YEAST), P32793
T6 chain: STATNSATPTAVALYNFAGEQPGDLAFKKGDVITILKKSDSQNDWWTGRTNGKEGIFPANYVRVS


Target: T1, Boi1 SH3 (BOI1_YEAST), P38041
Assay: SPOT array

| Binder | normalised SPOT signal, Boehringer light units (BLU); mean over the file's lines of this peptide |
| --- | --- |
| DKFIKLIPMRPVLI [YDR479C 286-299] | 117 |
| DQLNRLLPNLPEEE [YJR090C 138-151] | 106 |
| DIPRRYIPITPADL [YMR126C 79-92] | 14100 |
| DLKKKYAPDPPITH [YNR028W 35-48] | 164 |
| DIPLKQVPENPMPT [YIL155C 374-387] | 110 |
| DNELKDEPEPPNLI [YGR093W 206-219] | 17.2 |
| DIKTRSVPKIPSIE [YBR163W 320-333] | 344 |
| DLSLRYAPNLPRVI [YLL048C 1385-1398] | 352 |
| DLDWRKIPFLPKEI [YLR427W 487-500] | 2880 |
| DKKKKKYPRKPKKN [YDR485C 332-345] | 223 |
| DIGSKKLPTGPSKK [YER164W 1276-1289] | 3940 |

Further lines, results first:

| normalised SPOT signal, Boehringer light units (BLU); mean over the file's lines of this peptide | Binder |
| --- | --- |
| 0 | DPSDKSLPQQPFHK [YJR006W 304-317] |
| 4240 | DRKNRAPPQRPRFN [YER131W 91-104] |
| 66.5 | DKIFKTDPNEPAND [YDL174C 572-585] |
| 114 | DLQKKYEPSPPATH [YCR069W 34-47] |
| 170 | DILKKESPDVPLFD [YBR155W 341-354] |

Target: T2, Boi2 SH3 (BOI2_YEAST), P39969
Assay: SPOT array

| Binder | normalised SPOT signal, Boehringer light units (BLU); mean over the file's lines of this peptide |
| --- | --- |
| DKFIKLIPMRPVLI [YDR479C 286-299] | 0.3 |
| DQLNRLLPNLPEEE [YJR090C 138-151] | 18.1 |
| DIPRRYIPITPADL [YMR126C 79-92] | 52.6 |
| DLKKKYAPDPPITH [YNR028W 35-48] | 21 |
| DIPLKQVPENPMPT [YIL155C 374-387] | 12.3 |
| DNELKDEPEPPNLI [YGR093W 206-219] | 26 |
| DIKTRSVPKIPSIE [YBR163W 320-333] | 23.2 |
| DLSLRYAPNLPRVI [YLL048C 1385-1398] | 18.8 |
| DLDWRKIPFLPKEI [YLR427W 487-500] | 26.3 |
| DKKKKKYPRKPKKN [YDR485C 332-345] | 0 |
| DIGSKKLPTGPSKK [YER164W 1276-1289] | 34.4 |

Second part, the binder after the results:

| normalised SPOT signal, Boehringer light units (BLU); mean over the file's lines of this peptide | Binder |
| --- | --- |
| 25.2 | DPSDKSLPQQPFHK [YJR006W 304-317] |
| 24.1 | DRKNRAPPQRPRFN [YER131W 91-104] |
| 26.3 | DKIFKTDPNEPAND [YDL174C 572-585] |
| 2.8 | DLQKKYEPSPPATH [YCR069W 34-47] |
| 17.3 | DILKKESPDVPLFD [YBR155W 341-354] |

Target: T3, Myo5 SH3 (MYO5_YEAST), Q04439
Assay: SPOT array

| Binder | normalised SPOT signal, Boehringer light units (BLU); mean over the file's lines of this peptide |
| --- | --- |
| DKFIKLIPMRPVLI [YDR479C 286-299] | 253 |
| DQLNRLLPNLPEEE [YJR090C 138-151] | 47.5 |
| DIPRRYIPITPADL [YMR126C 79-92] | 33 |
| DLKKKYAPDPPITH [YNR028W 35-48] | 186 |
| DIPLKQVPENPMPT [YIL155C 374-387] | 62.9 |
| DNELKDEPEPPNLI [YGR093W 206-219] | 179 |
| DIKTRSVPKIPSIE [YBR163W 320-333] | 102 |
| DLSLRYAPNLPRVI [YLL048C 1385-1398] | 250 |
| DLDWRKIPFLPKEI [YLR427W 487-500] | 250 |
| DKKKKKYPRKPKKN [YDR485C 332-345] | 532 |
| DIGSKKLPTGPSKK [YER164W 1276-1289] | 220 |

Next, values leading:

| normalised SPOT signal, Boehringer light units (BLU); mean over the file's lines of this peptide | Binder |
| --- | --- |
| 192 | DPSDKSLPQQPFHK [YJR006W 304-317] |
| 2430 | DRKNRAPPQRPRFN [YER131W 91-104] |
| 99.1 | DKIFKTDPNEPAND [YDL174C 572-585] |
| 225 | DLQKKYEPSPPATH [YCR069W 34-47] |
| 146 | DILKKESPDVPLFD [YBR155W 341-354] |

Target: T4, Rvs167 SH3 (RV167_YEAST), P39743
Assay: SPOT array

| Binder | normalised SPOT signal, Boehringer light units (BLU); mean over the file's lines of this peptide |
| --- | --- |
| DKFIKLIPMRPVLI [YDR479C 286-299] | 39 |
| DQLNRLLPNLPEEE [YJR090C 138-151] | 682 |
| DIPRRYIPITPADL [YMR126C 79-92] | 956 |
| DLKKKYAPDPPITH [YNR028W 35-48] | 27.7 |
| DIPLKQVPENPMPT [YIL155C 374-387] | 26 |
| DNELKDEPEPPNLI [YGR093W 206-219] | 25.3 |
| DIKTRSVPKIPSIE [YBR163W 320-333] | 52200 |
| DLSLRYAPNLPRVI [YLL048C 1385-1398] | 41.9 |
| DLDWRKIPFLPKEI [YLR427W 487-500] | 177 |
| DKKKKKYPRKPKKN [YDR485C 332-345] | 66.5 |
| DIGSKKLPTGPSKK [YER164W 1276-1289] | 38.1 |

Other lines, results leading:

| normalised SPOT signal, Boehringer light units (BLU); mean over the file's lines of this peptide | Binder |
| --- | --- |
| 55.1 | DPSDKSLPQQPFHK [YJR006W 304-317] |
| 332 | DRKNRAPPQRPRFN [YER131W 91-104] |
| 47.5 | DKIFKTDPNEPAND [YDL174C 572-585] |
| 40.7 | DLQKKYEPSPPATH [YCR069W 34-47] |
| 0 | DILKKESPDVPLFD [YBR155W 341-354] |

Target: Sho1 SH3 (SHO1_YEAST), P40073
Assay: SPOT array

Sequence of Sho1 SH3 (SHO1_YEAST), P40073 (P40073 295-366): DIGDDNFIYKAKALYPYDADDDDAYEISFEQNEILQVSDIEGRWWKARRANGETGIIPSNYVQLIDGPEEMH

| Binder | normalised SPOT signal, Boehringer light units (BLU); mean over the file's lines of this peptide |
| --- | --- |
| DKFIKLIPMRPVLI [YDR479C 286-299] | 112 |
| DQLNRLLPNLPEEE [YJR090C 138-151] | 12000 |
| DIPRRYIPITPADL [YMR126C 79-92] | 33.7 |
| DLKKKYAPDPPITH [YNR028W 35-48] | 4.2 |
| DIPLKQVPENPMPT [YIL155C 374-387] | 15 |
| DNELKDEPEPPNLI [YGR093W 206-219] | 32.3 |
| DIKTRSVPKIPSIE [YBR163W 320-333] | 31.3 |
| DLSLRYAPNLPRVI [YLL048C 1385-1398] | 35 |
| DLDWRKIPFLPKEI [YLR427W 487-500] | 1070 |
| DKKKKKYPRKPKKN [YDR485C 332-345] | 114 |
| DIGSKKLPTGPSKK [YER164W 1276-1289] | 608 |

Results, then the binder that gave them:

| normalised SPOT signal, Boehringer light units (BLU); mean over the file's lines of this peptide | Binder |
| --- | --- |
| 397 | DPSDKSLPQQPFHK [YJR006W 304-317] |
| 134 | DRKNRAPPQRPRFN [YER131W 91-104] |
| 16.7 | DKIFKTDPNEPAND [YDL174C 572-585] |
| 32.6 | DLQKKYEPSPPATH [YCR069W 34-47] |
| 26.9 | DILKKESPDVPLFD [YBR155W 341-354] |

Target: T5, Yfr024 SH3 (LSB3_YEAST), P43603
Assay: SPOT array

| Binder | normalised SPOT signal, Boehringer light units (BLU); mean over the file's lines of this peptide |
| --- | --- |
| DKFIKLIPMRPVLI [YDR479C 286-299] | 1380 |
| DQLNRLLPNLPEEE [YJR090C 138-151] | 12300 |
| DIPRRYIPITPADL [YMR126C 79-92] | 748 |
| DLKKKYAPDPPITH [YNR028W 35-48] | 16.5 |
| DIPLKQVPENPMPT [YIL155C 374-387] | 13.5 |
| DNELKDEPEPPNLI [YGR093W 206-219] | 0 |
| DIKTRSVPKIPSIE [YBR163W 320-333] | 48300 |
| DLSLRYAPNLPRVI [YLL048C 1385-1398] | 156 |
| DLDWRKIPFLPKEI [YLR427W 487-500] | 790 |
| DKKKKKYPRKPKKN [YDR485C 332-345] | 245 |
| DIGSKKLPTGPSKK [YER164W 1276-1289] | 50 |

Results, then the binder that gave them:

| normalised SPOT signal, Boehringer light units (BLU); mean over the file's lines of this peptide | Binder |
| --- | --- |
| 39.2 | DPSDKSLPQQPFHK [YJR006W 304-317] |
| 3740 | DRKNRAPPQRPRFN [YER131W 91-104] |
| 0 | DKIFKTDPNEPAND [YDL174C 572-585] |
| 0 | DLQKKYEPSPPATH [YCR069W 34-47] |
| 0 | DILKKESPDVPLFD [YBR155W 341-354] |

Target: T6, Yhr016c SH3 (YSC84_YEAST), P32793
Assay: SPOT array

| Binder | normalised SPOT signal, Boehringer light units (BLU); mean over the file's lines of this peptide |
| --- | --- |
| DKFIKLIPMRPVLI [YDR479C 286-299] | 95.2 |
| DQLNRLLPNLPEEE [YJR090C 138-151] | 23200 |
| DIPRRYIPITPADL [YMR126C 79-92] | 116 |
| DLKKKYAPDPPITH [YNR028W 35-48] | 14.6 |
| DIPLKQVPENPMPT [YIL155C 374-387] | 4.6 |
| DNELKDEPEPPNLI [YGR093W 206-219] | 16.3 |
| DIKTRSVPKIPSIE [YBR163W 320-333] | 36000 |
| DLSLRYAPNLPRVI [YLL048C 1385-1398] | 19.3 |
| DLDWRKIPFLPKEI [YLR427W 487-500] | 154 |
| DKKKKKYPRKPKKN [YDR485C 332-345] | 15.7 |
| DIGSKKLPTGPSKK [YER164W 1276-1289] | 12.3 |

Second part, the binder after the results:

| normalised SPOT signal, Boehringer light units (BLU); mean over the file's lines of this peptide | Binder |
| --- | --- |
| 36.7 | DPSDKSLPQQPFHK [YJR006W 304-317] |
| 162 | DRKNRAPPQRPRFN [YER131W 91-104] |
| 14.1 | DKIFKTDPNEPAND [YDL174C 572-585] |
| 37.1 | DLQKKYEPSPPATH [YCR069W 34-47] |
| 18.3 | DILKKESPDVPLFD [YBR155W 341-354] |
